US10471163B2, “Activatable fibrin-binding probes” (priority 2013, dated 2019)
Numbered stars: 1 amine (or outer) side, 2 acyl side, 3 side chain; on linkers, the order of the positions; unused ones are H or OH. Bridge positions count the residues as written; N and C are the ends. TRITC = tetramethylrhodamine dye; Cysteamine = C(CS[*:2])N[*:1]; Ahx = NCCCCCC(=O)O

Columns and labels:
[1] = molecular target: DD(E) (soluble protein fragment of fibrin) (Homo sapiens, UniProt P02671+P02675+P02679); conditions: known value used for the competition assay; read-out: dissociation constant (Kd) of the TRITC-Tn6 probe for DD(E), known value; cited from earlier work
[2] = molecular target: T1, PDI (Homo sapiens, UniProt P07237); assay: Real-time fluorescence anisotropy assay of TRITC-Tn6-MDS activation in presence of DD(E); format: biochemical; conditions: only when both PDI and DTT are present simultaneously; 2 μM DD(E)
Protocol: These experiments were conducted in the same assay buffer as was used for the LC-MS experiment described above.

[3] = molecular target: fibrin fragment DD(E) (Homo sapiens, UniProt P02671+P02675+P02679); assay: Direct binding to DD(E) by fluorescence anisotropy; conditions: serial dilution of DD(E)
Protocol: The binding constants of the TRITC-Tn6-MDS probe and its activated cyclic form were then measured with the fibrin fragment DD(E). A serial dilution of the DD(E) protein was prepared and then mixed with the two probes. […] Therefore, the disulfide linkage of this probe can act as a switch for binding.

[4] = molecular target: T1, PDI; assay: LC-MS analysis of conversion of TRITC-Tn6-MDS to cyclized form; format: biochemical
Protocol: This mixed disulfide (MDS) probe, denoted as TRITC-Tn6-MDS, was then tested to determine whether it could be recognized as a substrate by PDI. Conversion of the probe from the mixed-disulfide (MDS) form to the cyclized form was followed by LC-MS under three sets of reaction conditions (PDI alone; DTT alone; and PDI+DTT). The assay buffer for these experiments was 50 mM TRIS, 100 mM NaCl, 2 mM CaCl, and 0.1% Triton X-100.

T1 sequence (P07237 18-508, species assumed): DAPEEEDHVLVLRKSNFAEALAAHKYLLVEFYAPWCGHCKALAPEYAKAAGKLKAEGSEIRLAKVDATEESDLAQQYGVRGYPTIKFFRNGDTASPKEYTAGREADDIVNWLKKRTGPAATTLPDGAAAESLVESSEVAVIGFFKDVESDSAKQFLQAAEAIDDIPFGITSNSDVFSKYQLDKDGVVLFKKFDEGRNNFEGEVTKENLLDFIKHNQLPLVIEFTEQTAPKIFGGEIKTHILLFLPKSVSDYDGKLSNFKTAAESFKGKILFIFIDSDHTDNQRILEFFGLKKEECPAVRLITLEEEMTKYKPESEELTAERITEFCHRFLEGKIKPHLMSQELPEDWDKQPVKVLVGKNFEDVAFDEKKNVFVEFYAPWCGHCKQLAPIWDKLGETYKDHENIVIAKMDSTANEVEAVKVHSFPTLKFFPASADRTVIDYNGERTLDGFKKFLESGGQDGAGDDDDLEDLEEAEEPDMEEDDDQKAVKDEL
DD(E) (soluble protein fragment of fibrin), sequence (P02671 130-216): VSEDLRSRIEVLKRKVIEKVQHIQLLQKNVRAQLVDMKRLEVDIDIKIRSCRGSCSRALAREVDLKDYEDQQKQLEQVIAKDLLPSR
DD(E) (soluble protein fragment of fibrin), sequence (P02675 164-491): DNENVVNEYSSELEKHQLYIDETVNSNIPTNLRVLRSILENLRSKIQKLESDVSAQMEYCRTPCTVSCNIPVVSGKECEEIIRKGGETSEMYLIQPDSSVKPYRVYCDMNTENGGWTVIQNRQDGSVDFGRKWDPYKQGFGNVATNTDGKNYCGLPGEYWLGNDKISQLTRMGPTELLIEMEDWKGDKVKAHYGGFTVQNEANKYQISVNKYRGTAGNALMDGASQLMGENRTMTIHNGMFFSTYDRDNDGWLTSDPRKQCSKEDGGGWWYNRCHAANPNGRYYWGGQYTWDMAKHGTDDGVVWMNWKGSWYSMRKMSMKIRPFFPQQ
DD(E) (soluble protein fragment of fibrin), sequence (P02679 114-432): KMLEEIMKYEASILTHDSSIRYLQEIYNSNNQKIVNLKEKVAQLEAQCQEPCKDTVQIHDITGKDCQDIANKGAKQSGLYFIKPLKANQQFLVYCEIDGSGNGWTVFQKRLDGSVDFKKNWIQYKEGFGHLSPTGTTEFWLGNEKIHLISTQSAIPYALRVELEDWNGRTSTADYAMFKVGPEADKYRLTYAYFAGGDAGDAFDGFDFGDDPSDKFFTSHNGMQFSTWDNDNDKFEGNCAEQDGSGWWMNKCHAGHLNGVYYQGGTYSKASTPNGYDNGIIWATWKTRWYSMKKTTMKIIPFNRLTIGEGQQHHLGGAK
DD(E) (soluble protein fragment of fibrin), sequence (P02671 36-97): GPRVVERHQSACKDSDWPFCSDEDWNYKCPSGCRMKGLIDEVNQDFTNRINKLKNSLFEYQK
DD(E) (soluble protein fragment of fibrin), sequence (P02675 45-152): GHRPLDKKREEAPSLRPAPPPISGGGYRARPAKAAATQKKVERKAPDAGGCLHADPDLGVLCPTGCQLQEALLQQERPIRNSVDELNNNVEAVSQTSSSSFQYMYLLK
DD(E) (soluble protein fragment of fibrin), sequence (P02679 27-88): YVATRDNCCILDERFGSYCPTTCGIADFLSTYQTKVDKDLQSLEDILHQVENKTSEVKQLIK
fibrin fragment DD(E), sequence (P02671 130-216): as the sequence (P02671 130-216) above
fibrin fragment DD(E), sequence (P02675 164-491): as the sequence (P02675 164-491) above
fibrin fragment DD(E), sequence (P02679 114-432): as the sequence (P02679 114-432) above
fibrin fragment DD(E), sequence (P02671 36-97): as the sequence (P02671 36-97) above
fibrin fragment DD(E), sequence (P02675 45-152): as the sequence (P02675 45-152) above
fibrin fragment DD(E), sequence (P02679 27-88): as the sequence (P02679 27-88) above

Row | Substance | Kd [1] | activation of the probe (cyclization and binding to DD(E)) [2] | Kd for DD(E) relative to that of the cyclic form [3] | conversion of mixed-disulfide form to cyclized form ([4]; PDI alone) | conversion of mixed-disulfide form to cyclized form ([4]; PDI in the presence of DTT, compared to DTT alone)
1 | TRITC-Tn6: fluorescent peptide structurally similar to EP-2104R that binds the same site on DD(E) ({TRITC-Ahx}-QWECPYGLCWIQ-NH2; disulfide 4-9 (inferred)) | 0.51 µM | – | – | – | –
2 | TRITCAha -QWECPYGLCWIQ-NH2 ({TRITC-Ahx}-QWEC(Cysteamine)PYGLC(Cysteamine)WIQ-NH2) [TRITC-Tn6-MDS, linear optical probe; N-terminal tetramethylrhodamine via 6-aminohexanoic acid linker; two cysteines protected as mixed disulfides with cystamine] | – | efficiently activated | roughly 20 fold | does not promote cyclization | rapid conversion
